Experiment [1] deals with T1, human claudin-4, untagged (human, UniProt O14493).
T1 construct: also called hCLDN-4
The experiment in a line: SEC. To be noted: both partners purified.

The next experiment has as its target T2, cCpE-His10 (wild type) (Clostridium perfringens, UniProt P01558).
T2 construct: not shown: His10, C-terminal, kept
The experiment in a line: BLI. To be noted: both partners purified.

T1 sequence (O14493 whole entry): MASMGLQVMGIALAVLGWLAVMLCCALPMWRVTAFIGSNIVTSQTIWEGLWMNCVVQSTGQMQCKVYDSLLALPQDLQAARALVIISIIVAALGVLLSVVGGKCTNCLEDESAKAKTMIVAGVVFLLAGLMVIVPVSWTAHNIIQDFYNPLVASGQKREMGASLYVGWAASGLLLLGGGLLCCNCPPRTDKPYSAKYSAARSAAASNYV

B1: COP-2 (CpE Obstructing Protein 2), synthetic antigen-binding fragment (Fab, V domains shown)
VH: EVQLVESGGGLVQPGGSLRLSCAASGFNFSSSSIHWVRQAPGKGLEWVASISSYSGYTSYADSVKGRFTISADTSKNTAYLQMNSLRAEDTAVYYCARYWSWYNSSHYIYSALDYWGQGTLVTVSS
VL: DIQMTQSPSSLSASVGDRVTITCRASQSVSSAVAWYQQKPGKAPKLLIYSASSLYSGVPSRFSGSRSGTDFTLTISSLQPEDFATYYCQQSYEWAPVTFGQGTKVEIK
notes: also called sFab; source: E. coli BL21-Gold, purified (MabSelect SuRe, Resource S)
As a reminder, the Kd is the equilibrium constant for the complex coming apart. Lower therefore signals higher affinity. For orientation: koff means a measure of how fast the partners let go of each other. A higher koff goes with a short-lived complex. The kon is the second-order rate constant of association. Higher therefore signals fast association. In the case of B1, the binding result in experiment [1] is “no binding”. In the experiment with cCpE-His10 (wild type), this molecule returned a Kd of 67.6 ± 11.7 nM, a koff of 0.00048 s⁻¹ and a kon of 7200 M⁻¹ s⁻¹.

B2: COP-3 (CpE Obstructing Protein 3), synthetic antigen-binding fragment (Fab, V domains shown)
VH: EVQLVESGGGLVQPGGSLRLSCAASGFNFYSSSIHWVRQAPGKGLEWVAYISSYSGYTYYADSVKGRFTISADTSKNTAYLQMNSLRAEDTAVYYCARGYGYFDYNFSVGYALDYWGQGTLVTVSS
VL: DIQMTQSPSSLSASVGDRVTITCRASQSVSSAVAWYQQKPGKAPKLLIYSASSLYSGVPSRFSGSRSGTDFTLTISSLQPEDFATYYCQQSHPWYYPITFGQGTKVEIK
notes: as for B1
Take B2: the binding result in experiment [1] is “no binding”. Also, in the experiment with cCpE-His10 (wild type), the affinity, expressed as Kd, was 138 ± 6.2 nM; the off-rate constant (koff) stood at 0.001 s⁻¹; the kon was determined as 10000 M⁻¹ s⁻¹.

Values taken from publication PMC9463536 (The Journal of Biological Chemistry, 2022).
